This assay has as its target T1, His-AGB1 (Arabidopsis, UniProt P49177 1-377).
T1 construct: AGB1 of Arabidopsis, full length, cloned into pCOLD-TF; as the empty pCOLD-TF vector gives His-TF, the fusion probably carries trigger factor between the His tag and AGB1 (surmised); also called His-tagged AGB1; source: E. coli (Rosetta), pCOLD-TF, purified; not shown: His, N-terminal, kept
T1 sequence (looked up): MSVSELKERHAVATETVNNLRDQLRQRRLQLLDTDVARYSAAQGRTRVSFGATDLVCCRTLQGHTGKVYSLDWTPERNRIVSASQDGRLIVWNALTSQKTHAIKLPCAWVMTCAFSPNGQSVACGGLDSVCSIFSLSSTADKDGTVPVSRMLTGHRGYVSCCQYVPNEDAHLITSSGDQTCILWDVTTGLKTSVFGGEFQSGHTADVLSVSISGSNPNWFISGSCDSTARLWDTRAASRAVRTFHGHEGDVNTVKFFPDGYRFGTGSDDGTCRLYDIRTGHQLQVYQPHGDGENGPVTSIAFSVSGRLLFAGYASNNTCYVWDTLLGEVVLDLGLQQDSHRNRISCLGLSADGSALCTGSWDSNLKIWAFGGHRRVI
As to the kind of experiment: pull-down; GST-BES1 held on glutathione beads (MagneGST), His-AGB1 or His-TF added, lysis buffer without EDTA, 2 h at 4°C; prey detected with anti-His antibody. The conditions noted are these: both partners purified.

B1: GST-BES1 (natural protein, Arabidopsis, UniProt Q9LN63 1-335, looked up)
chain: MTSDGATSTSAAAAAAAMATRRKPSWRERENNRRRERRRRAVAAKIYTGLRAQGNYNLPKHCDNNEVLKALCSEAGWVVEEDGTTYRKGHKPLPGDMAGSSSRATPYSSHNQSPLSSTFDSPILSYQVSPSSSSFPSPSRVGDPHNISTIFPFLRNGGIPSSLPPLRISNSAPVTPPVSSPTSRNPKPLPTWESFTKQSMSMAAKQSMTSLNYPFYAVSAPASPTHHRQFHAPATIPECDESDSSTVDSGHWISFQKFAQQQPFSASMVPTSPTFNLVKPAPQQLSPNTAAIQEIGQSSEFKFENSQVKPWEGERIHDVAMEDLELTLGNGKAHS
notes: BES1 of Arabidopsis, full length, cloned into pGEX-4T-1; also called GST-tagged BES1; source: E. coli (Rosetta), pGEX-4T-1, purified; not shown: GST, N-terminal, kept
On to B1, for which the binding result was “binds”.

Values taken from PMC5767185, “Arabidopsis G-Protein β Subunit AGB1 Interacts with BES1 to Regulate Brassinosteroid Signaling and Cell Elongation” (Frontiers in Plant Science, 2017).
